Source: the supplement of paper PMC12042874
± gives the uncertainty stated by the source.

Assay: amyloid nucleation score (Sup35N fusion, yeast selection) (log enrichment); library NNK3; higher = more nucleation; inactive = no reads after selection
Procedure, shortened: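 Sup35N was fused to peptides of 20 random codons and expressed in psi-negative yeast, which were induced with 100 μM copper sulfate for 24 hours and then grown on medium lacking adenine and uracil for 7 days at 30°C. Plasmid inserts from input and output were sequenced on Illumina. The nucleation score is the DiMSum log enrichment of output over input reads, centred on the mode score of non-aggregating sequences. Sequences with under 100 input reads were left out, and random libraries had three technical output replicates.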

Substance | amyloid nucleation score
GVGNKGSTKNLEQVTASVVV | inactive
ALFSKYIYITFNYYFMQKWL | 2.54 ± 0.054
FVVLLGFYHLASQDAYRGAL | 1.09 ± 0.14
LNWGLVTDSTFIWLMDTLRL | 1.05 ± 0.11
SFPLSYSSYIRLRVFFVE | inactive
RFNGVVQEIVFCWRYRFVGN | -0.631 ± 0.96
NCIIR | inactive
CFDTSLSVPGPMCYWKTKHG | inactive
RFKKVVHSFRFCAIENVLDY | inactive
LSQIEGWKCIGWVHYMVDSI | inactive
KIDLVGTLVMTIFNAQMQYE | 2.06 ± 0.083
IRDYVFRLYYRLNCMIRKRG | inactive
MIRSVLLIQFNALEHSVRCR | inactive
DIYFCYNIDFLYRVTLRQLR | inactive
CFTNNSIHVYSLWIKTRHFF | 0.239 ± 0.58
FYWSFIRLFRS | inactive
RCTVDVFMHCSKLSNAELSL | 0.833 ± 0.12
SILKGGFCYMNFRSGKWGV | inactive
LHQSSTGLSC | inactive
CRHINFMSIIFSFGDSSYRF | 2.2 ± 0.08
IYSNSPDRPEFHCNSRCGDG | inactive
ATTGR | inactive
WVDFFMFWGFAMNENKWFVH | inactive

Substance | amyloid nucleation score
MFLSWCKKVNLRMIILSSDT | inactive
RFGITLVFEYPAVEFVDTTI | inactive
AGTKSLRNYGWCLYDGGFYH | inactive
CPVKHGGLHYSNQSYHSSGG | inactive
WCASMRNVCYFVVFMESKLS | 0.294 ± 0.44
LNTPPQVSMGSEGLSFNMSF | inactive
GLFFW | -0.669 ± 0.74
WCTFKNLPLWYWTWCAFQGG | inactive
RTTINLLMCGHVMGFNSCLF | 1.99 ± 0.084
FSFTRNERIDSLCSNAHSFT | inactive
EKLCAHCSCPKVGVELFGCV | inactive
FLVNPVCSMVSSYCSFPSPK | 2.52 ± 0.062
VTRMDGYVAFISNHSFKSVY | 1.36 ± 0.14
SNGKVTLYKRLRDTSPQGIY | inactive
WLSYKSH | 0.392 ± 0.54
FFREYTSSRQMNICYLSFHG | inactive
AVIIDIHGINPMG | inactive
MCNWMNNLADSGLSASSVQV | inactive
CICKFTDLMHTGACLNILSR | 1.58 ± 0.11
FVSPNLIVMVWVHWRSEINR | inactive
NWMDDWSYVVVSF | -1.13 ± 2.5
RATKVDVRGGVA | -0.911 ± 1.5
SRDFVKYISEERS | inactive

Substance | amyloid nucleation score
NCIAFGWLWSELRN | inactive
ILYDDSCLFVTASWTSYVFV | 1.4 ± 0.073
ETISFYLCLLYDVKLVNALM | -0.54 ± 0.68
QCRQVIENNRVLFVAIKWEN | 0.57 ± 0.58
CWLYFLS | inactive
YKYLLFAFLETLGQWYLYVE | inactive
GKSTYVLFGKWNTEKTRNRG | inactive
GRSSCLSTFC | inactive
FNIMVYCNESSL | inactive
LMKMHQCDSKVWNEMGDASN | inactive
YVHFLFQTHIRCMVRFSLCW | inactive
SFNLTNSKYWVR | inactive
VMYHGMITLLVMLKTEQRKK | inactive
LSLAVKVIVKG | inactive
RVVCGNTGNVAIKKGLINMC | inactive
IGYTRLLFLMDVTVGIRVGW | inactive
FFVKYVLEKCAWKY | inactive
SGVTHDHLTYVLGGGKVVSR | inactive
CTGCTFRYEKKDYNLGCLCK | inactive
CQSSDFTEFVRKVKRPPQAC | inactive
FSRGLNHYNLYNFGGLCICT | 2.91 ± 0.07
SAYRVKMHKRRKAESVLGFR | inactive
INSSILGSCLWWFLFCF | 1.2 ± 0.12

Substance | amyloid nucleation score
ISQHMANFYNSVVVVCILED | 3.19 ± 0.075
IKNYCIIYSETPGRNKCGLR | 1.01 ± 0.22
SIDDGLSYLMGKVKIHKSGK | inactive
LQRPASEFSERGA | inactive
YWMLNAHRNW | inactive
GTYVKLLEVFTSFSWFRRFF | inactive
WVLDSERQMANSLWSGGGLA | inactive
SRKCWAHKSIDVEVATSSAK | inactive
ARKMTIRPPLFPAWHSFELK | inactive
IVRRGLKMCG | inactive
DNATARLQTRNEWSMR | inactive
KNGKWRGISSYRNRRFNTGI | inactive
LVWDKVSVVWNSKEGVNVRI | 0.256 ± 0.22
NWLLRYLYCRTNFGCCYR | -0.552 ± 0.7
QYVIIYEKQLGWRKFDFNSV | inactive
RVSRADRGRCSSFYNLRVLS | inactive
DWEDCVV | inactive
SEGFLAWCLRDLRSGRVAR | inactive
NVADALS | inactive
ILPFRWIVY | inactive
LKPELIGMCGEGGLIAFRSQ | inactive
YAYEIRRLT | inactive
GSMFFNVC | 0.254 ± 0.28

Substance | amyloid nucleation score
TSLSRHTIPYNHVLYSTWW | inactive
DRIAHF | inactive
ASNCDPMIHFLMHKVYKSFY | -0.103 ± 0.64
DMGTYVSCRRIFKNGRYSGC | inactive
LLTHRFVAGFHRKAHSCCDS | inactive
CYPFLWYCPNVCTVVSFDK | 2.46 ± 0.062
KGASIYMVTLFSSSNAKM | 1.28 ± 0.093
KGVFRNAFELFKYHFSHAGM | inactive
VCLWTVDLRIVTEGLGSHRG | inactive
LQAHCSNFWVFYMAFGPIDF | 1.76 ± 0.095
VRMVKYCLTLSSRTYCLIIM | inactive
VPLMQGD | 3.16 ± 0.056
RCMTHRTLAHENRFVHTRCW | inactive
CRQSVCFGAVC | inactive
LCVFWCGIPDRVFCNNGWMV | inactive
CKSSWDVVMSSVSDWFWDGA | inactive
RHVNCLAQLSDCKLTIM | 0.396 ± 0.38
RDISGMLYCYEGFYVF | inactive
PSYFVI | inactive
FMGLGLQLRLIHLSRG | inactive
RNVVAESRKSWGHCVRVTYT | inactive
GCGRTEMNVSMSGPSRMVDL | inactive
WEDMVDNHE | 1.32 ± 0.087

Substance | amyloid nucleation score
YSYICIILYWWCSRSAILPF | inactive
PVYVG | inactive
IVHVSLWKMSISPIWEWSMI | 0.006 ± 0.37
YRIYFLRCPDLTRMFNFVEL | inactive
VVSRVMTGSHHVRQFRM | inactive
WLVYPC | inactive
NALCSHTILLYGEVMLKSWL | inactive
GWGPGARGGLEDRGDCVCFL | inactive
MLCKYTCLICYGYRTKRSSE | 0.684 ± 0.17
CAKMHTCVYSFCTMEWSLTR | inactive
VKMTGDVVTLHLRDLINCWA | inactive
VCYVKYSSLLCMNLGIRHRT | inactive
VQTSHHNAVEICCMCLCQML | 3.02 ± 0.065
RMRSGSA | inactive
YYYSMVTTLRGAISILRNPA | inactive
KVRNPWMRIDTVCRFFILVV | inactive
SSFSFYYDFIHS | -0.433 ± 0.88
ARDCGRFIFLWWRYSLTKRH | inactive
SVDGDLAEDNMLMVSFSIGK | 0.128 ± 0.54
MCGDCICVVSVMLAHAPKCS | inactive
KHLGKAKSSGST | inactive
TIYFF | 1.27 ± 0.11
GTNDDESRRRRREWD | inactive

Substance | amyloid nucleation score
PYGNSELYSERGERAHCNLG | inactive
SFLRIDVVWFSAFFGWSPFL | 0.357 ± 0.54
MRAGWLYFWASANGDNQWEA | inactive
ISCMVFANHR | inactive
IYDCNRDIGDVLTSSDPPHA | inactive
PSHWFISL | inactive
VRVSNSFMTDTK | inactive
RNCYCWASVDI | inactive
CTQGMVYIS | inactive
GRLLRTMVD | inactive
LFVIINPQVTWLLFRMFESH | inactive
YYTSYIAGNLAFNTSKFRKM | -0.347 ± 0.7
KISETGRCNSLCW | inactive
NGCSS | inactive
RCCFWVMLFNYARGKRTWCH | inactive
RNTMSFNDSFTNALLLKSVG | inactive
FKLSMLA | inactive
YRAIVSHNAMTPV | inactive
NCNIWIEVQFTASDVIISWV | 1.69 ± 0.066
SVNTLLALRV | inactive
QSFGMFAVYRAWVSIL | inactive
